Results from patent CN109678963A (UNIV CHINA PHARMA, dated 2019).

T1: 重组人rNKG2D分子 (recombinant human NKG2D) (human, UniProt P26718 78-216, limits assumed)
T1 construct: Used as SPR analyte; source and construct are not described
T1 sequence (looked up): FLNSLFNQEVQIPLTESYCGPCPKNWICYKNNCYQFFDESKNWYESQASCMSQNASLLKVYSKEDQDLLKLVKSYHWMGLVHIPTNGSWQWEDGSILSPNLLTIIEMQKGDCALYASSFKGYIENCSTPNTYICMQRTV

T2: CD24裸肽 (CD24 naked peptide) (human, UniProt P25063 27-59, limits assumed)
T2 construct: also called 抗原CD24
T2 peptide (looked up): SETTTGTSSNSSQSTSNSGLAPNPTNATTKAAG

B1: 靶向CD24的双特异性抗体cG7-MICA (anti-CD24 humanized chimeric antibody cG7 fused at the heavy chain C-terminus to the human MICA extracellular domains 1-3) (bispecific antibody)
heavy: not shown
light: DIVMTQTPLSLSVTIGQPASISCKSSQSLLHSDGKTYLNWLLQRPGQSPKRLIYLVSKLDSGVPDRFTGSGSGTDFTLKVSRVEAEDLGVYYCWQGAHFPYTFGGGTKLEIKVDTVAAPSVFIFPPSDEQLKSGTASVVCLLNNFYPREAKVQWKVDNALQSGNSQESVTEQDSKDSTYSLSSTLTLSKADYEKHKVYACEVTHQGLSSPVTKSFNRGEC
notes: Expressed in CHO-s, purified on Protein A, about 210 kD
B2: 抗CD24人源化嵌合抗体cG7 (antibody, V domains shown)
VH: QVKLEESGGGLVQPGGSLKISCAASGFDFSRYWMSWVRQAPGKGLEWIGEINPDSSTINYTPSLRDKFIISRDNAKNTLYLQMSKVRYEDTSLYYCARQGDYWGQGTSVTVSS
VL: not shown

Legend:
[1] = molecular target: T1, 重组人rNKG2D分子 (recombinant human NKG2D); experiment: SPR, Biacore X100; cG7-MICA captured by anti-human IgG(Fc) on a CM5 chip, recombinant human rNKG2D as analyte (100-6.25 nM)
[2] = molecular target: T2, CD24裸肽 (CD24 naked peptide); experiment: SPR, Biacore X100; antibody captured by anti-human IgG(Fc) on a CM5 chip, CD24 naked peptide as analyte (100-0.39 nM), 25 C

Binder	Kd [1] [nM]	koff [1] [s⁻¹]	kon [1] [M⁻¹ s⁻¹]	Kd [2] [nM]	koff [2] [s⁻¹]	kon [2] [M⁻¹ s⁻¹]
B1	576	0.0015	2620	0.242	0.000339	1.4e+06
B2				0.191	0.000336	1.76e+06
